Measurements reported in patent US20160194394A1 (GOVERNING COUNCIL OF THE UNIVERSITY OF TORONTO, published 2016).
Substitutions are numbered along the chain they refer to.

Legend:
[1] = target: T1, FZD7 receptor expressed on cells (full-length) (UniProt O75084 33-574, limits assumed); experiment: flow cytometry, 200 nM Fab, MDA MB 231 [cont'd]
T1 construct: whole, on cells; MDA MB 231 cells may carry other Frizzled receptors too; also called full-length FZD7 receptor; endogenous receptor on MDA MB 231 cells
Description: (§1) FIG. 3 is a table depicting the binding of the purified Fabs to cells expressing FZD7 (flow cytometry). Small scale Fabs were assayed for binding to full-length FZD7 receptor to an over-expression line in MDA MB 231 cells. In parallel, Fabs were assayed for binding to endogenous receptor expressed on the MDA MB 231 cells. Cells were harvested using an EDTA solution, blocked in 2% FBS/PBS (stain buffer), and stained with 200 nM Fab for 30 min on ice. Cells were washed two times with stain buffer and incubated with anti-F(ab′)₂-APC secondary antibody (Jackson Immuno) at 1:1000 for 15 minutes on ice. All antibodies were diluted in stain buffer. Cells were washed three times with stain buffer and then fixed with 1% paraformaldehye for analysis by flow cytometry. […] The percent of the cell population within the positive gates is indicated.

[2] = target: T2, recombinant Frizzled receptor 7 (FZD7) cysteine-rich domain (CRD) fused to the Fc region of human IgG (human, UniProt O75084 33-185); experiment: ELISA, 1ug/ml (20nM) Fab [cont'd]
Description: (§2) FIG. 2B is a table depicting the binding of purified Fabs to purified FZD7-Fc measured by ELISA. Fabs purified from 25 ml bacterial cultures were assayed for binding to FZD7-Fc fusion protein (R&D systems) and Fc protein. ELISA plates (384 well) were coated with 2 ug/ml of protein in PBS overnight at four degrees. Wells were blocked with 0.5% BSA/PBS for 1 hour at room temperature, washed three times with 0.05% Tween20/PBS (wash buffer), and then primary dilutions of Fabs in 0.5% BSA/0.05% Tween20/PBS (dilution buffer) were added at indicated concentrations. Fabs were incubated for 1 hour at room temperature, wells were washed six times, and anti-FLAG-HRP (Sigma) was added at 1:5000 in dilution buffer. Secondary antibody was incubated for 45 minutes at room temperature, and wells were washed six times and developed with TMB substrate with an acid stop. The absorbance at 450 nm was read. n.t.=not tested.

Fc control protein [3] = target: T3, Fc control protein; experiment: ELISA, 1ug/ml (20nM) Fab [cont'd]
T3 construct: also called Fc protein; control Fc protein
Description: as §2

[4] = target: T2, recombinant Frizzled receptor 7 (FZD7) …; experiment: ELISA, 10ug/ml (200nM) Fab [cont'd]
Description: as §2

Fc control protein [5] = target: T3, Fc control protein; experiment: ELISA, 10ug/ml (200nM) Fab [cont'd]
Description: as §2

[6] = target: T1, FZD7 receptor expressed on cells …; experiment: flow cytometry, 200 nM Fab, FZD7 over-expression line (MDA MB 231) [cont'd]
Description: as §1

B1: D11 (Fab)
light: DIQMTQSPSSLSASVGDRVTITCRASQSVSSAVAWYQQKPGKAPKLLIYSASSLYSGVPSRFSGSRSGTDFTLTISSLQPEDFATYYCQQYFPSGLITFGQGTKVEIKRTVAAPSVFIFPPSDSQLKSGTASVVCLLNNFYPREAKVQWKVDNALQSGNSQESVTEQDSKDSTYSLSSTLTLSKADYEKHKVYACEVTHQGLSSPVTKSFNRGECGGS
heavy: EVQLVESGGGLVQPGGSLRLSCAASGFNISYSYMHWVRQAPGKGLEWVASISPSSGYTSYADSVKGRFTISADTSKNTAYLQMNSLRAEDTAVYYCARSVSWWYSWWSWGMDYWGQGTLVTVSSASTKGPSVFPLAPSSKSTSGGTAALGCLVKDYFPEPVTVSWNSGALTSGVHTFPAVLQSSGLYSLSSVVTVPSSSLGTQTYICNVNHKPSNTKVDKKVEPKSC
notes: selection round 3; also called Fzd7-R3-D11
B1 was tested, and the “% population within the positive gate” value [1] was 1.2%, the “OD 450” value [2] was 1.42 and the “OD 450” value (Fc control protein [3]) was 0.06. The “OD 450” value [4] was 2.79, the “OD 450” value (Fc control protein [5]) was 0.15 and the “% population within the positive gate” value [6] was 81%.

B2: F3 (Fab)
light: B1 light with Y91G, F92G, P93H, S94Y, G95W
heavy: EVQLVESGGGLVQPGGSLRLSCAASGFNISYSSMHWVRQAPGKGLEWVASISSSYGYTSYADSVKGRFTISADTSKNTAYLQMNSLRAEDTAVYYCARSYYGYYVGYGYSSWSGSGMDYWGQGTLVTVSSASTKGPSVFPLAPSSKSTSGGTAALGCLVKDYFPEPVTVSWNSGALTSGVHTFPAVLQSSGLYSLSSVVTVPSSSLGTQTYICNVNHKPSNTKVDKKVEPKSC
notes: selection round 3; also called Fzd7-R3-F3
With B2 the “% population within the positive gate” value [1] was 1%, the “OD 450” value [2] was 2.35 and the “OD 450” value (Fc control protein [3]) was 0.06. The “OD 450” value [4] was 2.97, the “OD 450” value (Fc control protein [5]) was 0.07 and the “% population within the positive gate” value [6] was 82.5%.

B3: B11 (Fab)
light: DIQMTQSPSSLSASVGDRVTITCRASQSVSSAVAWYQQKPGKAPKLLIYSASSLYSGVPSRFSGSRSGTDFTLTISSLQPEDFATYYCQQYFYSSYSPITFGQGTKVEIKRTVAAPSVFIFPPSDSQLKSGTASVVCLLNNFYPREAKVQWKVDNALQSGNSQESVTEQDSKDSTYSLSSTLTLSKADYEKHKVYACEVTHQGLSSPVTKSFNRGECGGS
heavy: EVQLVESGGGLVQPGGSLRLSCAASGFNISYSYMHWVRQAPGKGLEWVAYIYPSYSSTSYADSVKGRFTISADTSKNTAYLQMNSLRAEDTAVYYCARASYWALDYWGQGTLVTVSSASTKGPSVFPLAPSSKSTSGGTAALGCLVKDYFPEPVTVSWNSGALTSGVHTFPAVLQSSGLYSLSSVVTVPSSSLGTQTYICNVNHKPSNTKVDKKVEPKSC
notes: selection round 2; also called Fzd7-R2-B11
In the case of B3, the “% population within the positive gate” value [1] is reported as 97.2%, the “OD 450” value [2] is reported as 3.15 and the “OD 450” value (Fc control protein [3]) is reported as 0.05. For the same binder, the “OD 450” value [4] was 3.2, the “OD 450” value (Fc control protein [5]) was 0.08 and the “% population within the positive gate” value [6] was 91.2%.

B4: A7 (Fab)
light: DIQMTQSPSSLSASVGDRVTITCRASQSVSSAVAWYQQKPGKAPKLLIYSASSLYSGVPSRFSGSRSGTDFTLTISSLQPEDFATYYCQQYHYGYYPFTFGQGTKVEIKRTVAAPSVFIFPPSDSQLKSGTASVVCLLNNFYPREAKVQWKVDNALQSGNSQESVTEQDSKDSTYSLSSTLTLSKADYEKHKVYACEVTHQGLSSPVTKSFNRGECGGS
heavy: B3 heavy with I29L, Y31S, M34I, P53S, S56G, S59Y, Y101W, L104I
notes: selection round 2; also called Fzd7-R2-A7
With B4 the “% population within the positive gate” value [1] was 96.3%, the “OD 450” value [2] was 3.19 and the “OD 450” value (Fc control protein [3]) was 0.07. The “OD 450” value [4] was 3.22, the “OD 450” value (Fc control protein [5]) was 0.07 and the “% population within the positive gate” value [6] was 92.7%.

B5: H8 (Fab)
light: B3 light with Y91S, S94W, S95G, S97P, I99F
heavy: EVQLVESGGGLVQPGGSLRLSCAASGFNIYSSSIHWVRQAPGKGLEWVASIYSYYGYTYYADSVKGRFTISADTSKNTAYLQMNSLRAEDTAVYYCARWYAFDYWGQGTLVTVSSASTKGPSVFPLAPSSKSTSGGTAALGCLVKDYFPEPVTVSWNSGALTSGVHTFPAVLQSSGLYSLSSVVTVPSSSLGTQTYICNVNHKPSNTKVDKKVEPKSC
notes: selection round 2; also called Fzd7-R2-H8
In the case of B5, the “% population within the positive gate” value [1] is reported as 1.1%, the “OD 450” value [2] is reported as 0.78 and the “OD 450” value (Fc control protein [3]) is reported as 0.06. For the same binder, the “OD 450” value [4] was 2.7, the “OD 450” value (Fc control protein [5]) was 0.08 and the “% population within the positive gate” value [6] was 79.6%.

B6: B2 (Fab)
light: DIQMTQSPSSLSASVGDRVTITCRASQSVSSAVAWYQQKPGKAPKLLIYSASSLYSGVPSRFSGSRSGTDFTLTISSLQPEDFATYYCQQAYAYLITFGQGTKVEIKRTVAAPSVFIFPPSDSQLKSGTASVVCLLNNFYPREAKVQWKVDNALQSGNSQESVTEQDSKDSTYSLSSTLTLSKADYEKHKVYACEVTHQGLSSPVTKSFNRGECGGS
heavy: EVQLVESGGGLVQPGGSLRLSCAASGFNISYSSMHWVRQAPGKGLEWVASISSSYGYTYYADSVKGRFTISADTSKNTAYLQMNSLRAEDTAVYYCARSGGHFYYWYVAAAMDYWGQGTLVTVSSASTKGPSVFPLAPSSKSTSGGTAALGCLVKDYFPEPVTVSWNSGALTSGVHTFPAVLQSSGLYSLSSVVTVPSSSLGTQTYICNVNHKPSNTKVDKKVEPKSC
notes: selection round 2; not the round 3 clone B2 (f33); also called Fzd7-R2-B2
In the case of B6, the “% population within the positive gate” value [1] is reported as 7.1%, the “OD 450” value [2] is reported as 3.19 and the “OD 450” value (Fc control protein [3]) is reported as 0.06. The “OD 450” value [4] was 3.18, the “OD 450” value (Fc control protein [5]) was 0.13 and the “% population within the positive gate” value [6] was 86.8%.

B7: B7 (Fab)
light: B6 light with A93Y, Y94P, I96F
heavy: EVQLVESGGGLVQPGGSLRLSCAASGFNISYSSMHWVRQAPGKGLEWVASIYPSYGYTSYADSVKGRFTISADTSKNTAYLQMNSLRAEDTAVYYCARVYWSSSYWAGGYWVGSAFDYWGQGTLVTVSSASTKGPSVFPLAPSSKSTSGGTAALGCLVKDYFPEPVTVSWNSGALTSGVHTFPAVLQSSGLYSLSSVVTVPSSSLGTQTYICNVNHKPSNTKVDKKVEPKSC
notes: selection round 3; also called Fzd7-R3-B7
B7 was tested, and the “% population within the positive gate” value [1] was 0.7%, the “OD 450” value [2] was 2.12 and the “OD 450” value (Fc control protein [3]) was 0.06. The “OD 450” value [4] was 3.06, the “OD 450” value (Fc control protein [5]) was 0.07 and the “% population within the positive gate” value [6] was 80.1%.

B8: C12 (Fab)
light: B6 light with A91S, Y92S, A93Y, Y94S
heavy: EVQLVESGGGLVQPGGSLRLSCAASGFNLSYSYMHWVRQAPGKGLEWVASIYSSYGYTSYADSVKGRFTISADTSKNTAYLQMNSLRAEDTAVYYCARYYGWAYYYSYFPAWAGGGIDYWGQGTLVTVSSASTKGPSVFPLAPSSKSTSGGTAALGCLVKDYFPEPVTVSWNSGALTSGVHTFPAVLQSSGLYSLSSVVTVPSSSLGTQTYICNVNHKPSNTKVDKKVEPKSC
notes: selection round 2; same four CDRs as Fzd7-R3-B2 (f33); also called Fzd7-R2-C12
In the case of B8, the “% population within the positive gate” value [1] is reported as 11.9%, the “OD 450” value [2] is reported as 2.87 and the “OD 450” value (Fc control protein [3]) is reported as 0.05. For the same binder, the “OD 450” value [4] was 3.15, the “OD 450” value (Fc control protein [5]) was 0.07 and the “% population within the positive gate” value [6] was 86.9%.

B9: C1 (Fab)
light: B6 light with A91Y, Y92G, A93H
heavy: EVQLVESGGGLVQPGGSLRLSCAASGFNLYSYSMHWVRQAPGKGLEWVASISSYYGSTYYADSVKGRFTISADTSKNTAYLQMNSLRAEDTAVYYCARAHGSSPGWYYAPYAGGGLDYWGQGTLVTVSSASTKGPSVFPLAPSSKSTSGGTAALGCLVKDYFPEPVTVSWNSGALTSGVHTFPAVLQSSGLYSLSSVVTVPSSSLGTQTYICNVNHKPSNTKVDKKVEPKSC
notes: selection round 2; also called Fzd7-R2-C1
B9 was tested, and the “% population within the positive gate” value [1] was 66.5%, the “OD 450” value [2] was 3.15 and the “OD 450” value (Fc control protein [3]) was 0.06. The “OD 450” value [4] was 3.19, the “OD 450” value (Fc control protein [5]) was 0.14 and the “% population within the positive gate” value [6] was 87.3%.
